Measurements reported in patent US12441790B2, “Binding proteins to the human thrombin receptor, PAR4” (MONASH UNIVERSITY, priority 2017, dated 2025).

Assays:
native PAR4 peptide = biological target: T1, native PAR4 peptide (Homo sapiens, UniProt Q96RI0); assay: ELISA screening of hybridoma supernatants, native vs KLH-linked PAR4 peptide; format: binding; details: first screening; second sub-clone
T1 construct: host or cells: synthetic peptide
Experimental: 96-well ELISA plates were coated with 50 μl of antigen diluted to a concentration of 4 μg/ml in coating buffer (0.1M Sodium Hydrogen Carbonate (NaHCO3) (Merck, #1.06329.0500)). Plates were incubated overnight at 4° C.
Wells were then washed with an automated plate washer (300 μl 1×PBS, 3 times). The wells were blocked with 200 μl of blocking buffer (3% BSA/1×PBS (BSA: (Sigma, #1001647742)) for 1 hour at room temperature followed by washing as above.
50 μl of undiluted hybridoma cell culture supernatant was added into appropriate wells and incubated at room temperature for 1 hour followed by washing as above. […] Wells were washed as above. A set of substrate tablets (1×silver, 1×gold) into 20 ml of ddH20 by shaking vigorously on the thermomixer for 6 mins at room temperature. 50 μl of substrate ([…]™ p-Nitrophenyl phosphate Tablets (Sigma-Aldrich, N2770-50SET)) was added into each well and incubated for 20-25 mins at room temperature. 50 μl of STOP solution (2M Sodium Hydroxide, Solid (NaOH) (Merck, Cas #1310-73-2)) was added into each well to stop the reaction. Absorbance was read at 405 nm immediately after adding STOP solution with the ELISA reader, using the ‘RdrOle4’ software.

hPAR4 peptide [1] = biological target: T2, hPAR4 peptide (Homo sapiens, UniProt Q96RI0); assay: ELISA of purified mAbs on hPAR4 peptide; format: binding; details: dilutions of purified mAbs
T2 construct: host or cells: synthetic peptide
T2 sequence (Q96RI0 35-54 limits assumed): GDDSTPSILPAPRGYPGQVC
Experimental: (§1) The kinetics of the binding interaction between the mAbs and hPAR4 was measured using Surface Plasmon Resonance (SPR; Biacore) by two different methods: 1. Anti-mouse Fc mAb capture method and 2. Streptavidin (SA) chip to capture biotinylated peptide. The ka(on) rate and kd(off) rates and KD were measured and fitted to a Langmuir model using the Biacore evaluation software.
The experiment was completed with purified mAbs diluted in PBS instead of hybridoma supernatants.
The reactivity of seven purified anti-hPAR4 mAbs was analysed by ELISA (see Table 4).

hPAR4 peptide [2] = biological target: T2, hPAR4 peptide; assay: mAb capture SPR (Biacore, anti-mouse Fc capture); format: binding
Experimental: (§2) Biacore analysis was performed on a Biacore T200 using two different methods either an anti-mouse Fc capture approach or using a similar method as described above using the ProteoOn system.
A series S CM5 sensor chip was activated with standard EDC/NHS amine coupling chemistry using the manufacturers recommended protocol with Goat anti-mouse IgG Fc. Anti-hPAR4 mAbs were captured at 1-2 ug/ml for 2 minutes at 10 ul/minute on flow cell 2 (FC2) and flow cell 1 (FC1) was used as a reference channel. […] Blank injections of buffer alone were also performed. All injections were performed in duplicate and in a random order. After each capture/injection/dissociation cycle the chip was regenerated with a 30 second injection of 0.1M Glycine pH2.0.
(§3) For the mAb capture method low levels of ligand mAb and analyte hPAR4 were used in an attempt to produce a 1:1 binding interaction, this method has been used successfully to measure kinetics and affinity KD's (Kamat V and Rafique A (2017) Analytical Biochemistry 530:75-86), despite using a whole IgG.
as §1

[3] = biological target: T3, hPAR4-biotinylated peptide (Homo sapiens, UniProt Q96RI0); assay: SA chip biotin peptide SPR (Biacore, streptavidin capture); format: binding
T3 construct: host or cells: synthetic peptide
T3 sequence (Q96RI0 with tags, fused parts or gaps limits assumed): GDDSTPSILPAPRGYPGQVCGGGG
Experimental: as §2
A series S sensor chip SA was conditioned using the manufacturers recommended protocol and immobilised with 1 ug/ml hPAR4-biotinylated peptide on FC2 and hPAR1-biotinylated peptide as a control onto FC1. […] Blank injections of buffer alone were also performed. All injections were performed in duplicate and in a random order. After each capture/injection/dissociation cycle the chip was regenerated with a 30 second injection of 0.1M Glycine pH2.0.
as §3, §1

human platelets = assay: Thrombin-induced platelet aggregation assay; format: cell-based
Experimental: Platelet aggregation was measured by light transmission aggregometry in a 96-well plate format. Human isolated platelets (2×10^8/ml) were pre-treated for 10 mins at 37° C. with dimethylsulfoxide (DMSO) (1% v/v), the PAR1 antagonist vorapaxar (90 nM), the anti-PAR4 antibody 5RC3 (20-100 μg/ml), or a combination of vorapaxar and 5RC3. Platelets were treated with one of thrombin (0.1 U/ml) and aggregation was analysed at 37° C. in a FLUOstar OPTIMA plate reader (BMG Labtech) using a 595 nm excitation filter, for a period of 50 min (10 read cycles with 5 min double orbital shake period between each read). Optical density was normalised against the blank (maximum) and unstimulated platelets (minimum) and expressed as % maximum.
Human isolated platelets of different PAR4 variants were assessed for their responses to PAR4 agonists.
The binding of five anti-PAR4 monoclonal antibodies to human platelets was examined by flow cytometry.

human whole blood = assay: Human whole blood thrombosis assay; format: cell-based
Experimental: Human whole blood collected in citrate (3.2%) was pre-incubated for 15 min at 37° C. with PE-conjugated anti-CD9 antibody (4 μg/mL) and an anti-fibrin antibody (5 μg/ml), and one of hirudin (800 U/ml), DMSO (1% v/v), PAR-1 antagonist E5555 (1 μM), anti-PAR4 antibody (0.2 mg/ml) or the combination of both PAR inhibitors. Whole blood was re-calcified with 5-7.5 mM CaCl2 (final concentration) to initiate coagulation, and drawn over glass microslides (1×0.1 mm internal diameter) coated with bovine type 1 collagen (250 μg/ml) at a fixed flow rate of 0.06 ml/min, resulting in a wall shear rate of 600 s^−1. Dual colour confocal fluorescence images were recorded at 488 and 561 nm excitation, collected through a 40× water immersion objective. Confocal z-stacks were continuously recorded for 2 min before modified, calcium-free Tyrode's buffer was flowed over the thrombi and z-stacks encompassing the entire height of the thrombus field were recorded over a period of 10 min. Platelet thrombi were defined using anti-CD9-PE and fibrin volume was quantified using average fluorescence of the thrombus field. Data were normalised against the hirudin baseline and expressed as a percentage of the control.
Thrombosis parameters including platelet deposition, thrombin activity, fibrin volume and ratio of fibrin per thrombus were measured in real-time over a period of 10 minutes in a whole blood thrombosis assay as described herein under conditions of coagulation.
Platelet deposition (PE-conjugated anti-CD9), thrombin activity (FRET-based thrombin probe), fibrin volume (Dylight650-conjugated anti-fibrin antibody) and the ratio of fibrin per thrombus at the 10 minute end-point is shown in FIG. 10A by confocal microscopy (to allow for volume measurements to be taken) using a Nikon Air with a 25× lens and 2× digital magnification.
The volume of human thrombi formed after 3 min was quantified by confocal microscopy in an ex vivo human whole blood thrombosis assay.

[4] = 10 minute endpoint, 5A.RC3 100 μg/ml, hirudin 800 U/ml

Fold binding native vs KLH-linked PAR4 peptide (native PAR4 peptide): 19.3
reactivity with hPAR4 peptide by ELISA (hPAR4 peptide [1]): very similar binding curves
ka (hPAR4 peptide [2]): 330000 M⁻¹ s⁻¹
kd (hPAR4 peptide [2]): 0.00487 s⁻¹
ka [3]: 1.32e+06 M⁻¹ s⁻¹
kd [3]: 0.000417 s⁻¹
B1: 5A.RC3: anti-PAR4 monoclonal antibody, IgG2a/K, VH SEQ ID NO:11 and VL SEQ ID NO:12 (antibody, V domains shown)
VH: QVQLVESGGGVVQPGRSLRLSCAASGFTLSNYGMHWVRQAPGKGLEWVSVIWYDGSNKHYADSVKGRFTISRDNSKNTLYLQMNSLRAEDTAVYYCARESIVEVLPPFDYWGQGTLVTVSS
VL: KIVLTQSPGTLSLSPGERVTLSCRASQRVRNNYLAWFQQKPGQAPRLFIYGASSRATGIPDRFSGSGSGTDFIFTISRLEPEDFAVYYCQQYGNSYTFGQGTKLEIK
modifications: VH of 5A.RC3; VL of 5A.RC3
inhibition of platelet aggregation at the highest concentration tested (human platelets; 0.1 U/ml thrombin): Near maximal inhibition
inhibition of thrombin-induced platelet aggregation (human platelets; in the presence of a PAR1 antagonist, genotypes TT, AT, AA): inhibited in a dose dependent manner
total thrombus volume (human whole blood; 100 μg/ml, thrombi formed after 3 min): reduced total thrombus volume
ratio of fibrin per thrombus volume (human whole blood; 10 minute endpoint, 5A.RC3 100 μg/ml): significantly inhibited
fibrin volume (human whole blood; [4]): significantly inhibited
platelet deposition (human whole blood; [4]): no effect
thrombin activity (human whole blood; [4]): significantly inhibited
